Reference: paper PMC6576158

Molecular target: mouse Nicastrin I241C mutant (mouse) (UniProt P57716)
Experiment: cross-linking

UniProt P57716, sequence (P57716 28-708 I241C): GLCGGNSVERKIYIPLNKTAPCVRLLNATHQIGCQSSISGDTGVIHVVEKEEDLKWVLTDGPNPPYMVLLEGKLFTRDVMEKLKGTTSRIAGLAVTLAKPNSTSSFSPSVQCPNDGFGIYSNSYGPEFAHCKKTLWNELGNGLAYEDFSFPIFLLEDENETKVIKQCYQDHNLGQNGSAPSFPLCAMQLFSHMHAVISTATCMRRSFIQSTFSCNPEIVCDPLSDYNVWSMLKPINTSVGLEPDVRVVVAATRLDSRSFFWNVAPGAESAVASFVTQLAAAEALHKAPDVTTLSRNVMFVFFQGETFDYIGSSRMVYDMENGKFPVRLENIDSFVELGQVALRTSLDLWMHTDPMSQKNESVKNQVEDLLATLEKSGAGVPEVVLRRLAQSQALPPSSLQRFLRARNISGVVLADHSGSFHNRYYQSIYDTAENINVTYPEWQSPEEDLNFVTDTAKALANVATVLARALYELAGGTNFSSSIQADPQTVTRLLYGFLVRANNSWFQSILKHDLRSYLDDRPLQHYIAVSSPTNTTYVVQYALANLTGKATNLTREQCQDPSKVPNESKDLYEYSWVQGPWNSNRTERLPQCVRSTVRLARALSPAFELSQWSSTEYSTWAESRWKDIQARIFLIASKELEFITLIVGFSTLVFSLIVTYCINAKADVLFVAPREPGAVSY

APPC99‐3xFLAG‐K28C (domain or fragment)
percent of the substrate cross-linked to NCT (disulfide bond): 15.4%
